Reference: patent US20240317847A1 (Bayer, published 2024)
Each block holds one binder with its values, some of them ahead of it.

Legend:
[1] = biological target: T1, human IL2Ra (human, UniProt P01589 22-240, limits assumed); assay: IL2Ra direct binding ELISA, signal ratio to isotype control
T1 construct: bought protein, coated on the plate; also called hIL2RA; IL-2 receptor alpha
T1 sequence (looked up): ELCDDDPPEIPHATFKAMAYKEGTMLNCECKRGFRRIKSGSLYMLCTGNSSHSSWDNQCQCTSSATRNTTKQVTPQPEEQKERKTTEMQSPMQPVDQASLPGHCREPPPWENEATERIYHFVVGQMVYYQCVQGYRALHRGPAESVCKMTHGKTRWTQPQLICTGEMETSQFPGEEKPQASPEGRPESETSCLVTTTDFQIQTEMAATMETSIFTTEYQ
Summary of the method: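 Plates coated overnight at 4-8 °C with IL2RA at 1 or 0 μg/ml, blocked with SmartBlock. Antibody dilution series from 1E-7 to 2E-13 M bound 90 min at room temperature, detected with HRP anti-mouse IgG and Amplex red/H2O2; fluorescence at 535/590 nm.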

[2] = biological target: T2, human IL-11 (human, UniProt P20809 22-199); assay: Di-complex ELISA, canine IL11RA-hFc binding to immobilized hIL-11, competition
T2 construct: Invigate recombinant protein; biotinylated when immobilized in the Di-complex ELISA; also called hIL11; hIL-11
T2 sequence: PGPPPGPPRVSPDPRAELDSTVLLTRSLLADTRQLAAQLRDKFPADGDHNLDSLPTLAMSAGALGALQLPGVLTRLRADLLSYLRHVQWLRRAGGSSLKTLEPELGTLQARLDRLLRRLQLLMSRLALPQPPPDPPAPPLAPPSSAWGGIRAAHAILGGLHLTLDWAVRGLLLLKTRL
Experimental: In the Di-complex ELISA format anti IL-11 antibodies are tested for the ability to interfere with the formation of complexes consisting of immobilized murine IL-11 (Invigate, e.g., lot #C210819-09) or human IL-11 (Invigate, e.g., lot #C121021-19), and murine IL11RA-Fc fusion proteins or canine IL11RA-human-Fc fusion protein (FIG. 17a, b).
Bispecific antibodies were subjected to the experimental assay procedure described in Example 18 and IC50 [M], respectively efficacy (%) were calculated accordingly.

[3] = biological target: T3, cynomolgus IL-11 (cynomolgus, UniProt P20808 22-199); assay: SPR (Biacore), 25 C, antibody captured via anti-Fc, IL-11 as analyte, determined in steady state; SPR at 25 C, determined in steady state
T3 construct: Invigate recombinant protein; also called cIL11; Macaca IL-11
T3 sequence: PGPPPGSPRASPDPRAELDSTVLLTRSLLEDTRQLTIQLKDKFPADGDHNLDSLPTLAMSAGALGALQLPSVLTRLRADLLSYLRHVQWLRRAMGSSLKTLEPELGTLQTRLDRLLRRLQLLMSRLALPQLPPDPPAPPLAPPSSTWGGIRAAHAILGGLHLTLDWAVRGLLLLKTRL
Experimental: (§1) To assess the binding kinetics and affinity of anti-IL-11 bispecific antibodies as well as their species cross-reactivity profile, binding assays were conducted using surface plasmon resonance (SPR). […] Antibodies were captured either via anti-human Fc IgGs (“Human antibody capture kit”, Order No. BR100839, Cytiva) or via anti-mouse Fc IgGs (“Mouse antibody capture kit, Order No. BR100383, Cytiva) covalently amine coupled to a Series S CM5 sensor chip (Cytiva) depending on the isotype. The amine coupling was carried out according to the manufacturer's instructions using 1-ethyl-3-(3-dimethylaminopropyl) carbodiimide hydrochloride (EDC), N-hydroxysuccinimide (NHS) and ethanolamine HCl, pH 8.5 (“Amine Coupling Kit” BR-1000-50, Cytiva.). Human, mouse, cynomolgus or rat IL-11 was used as analyte at several dilutions within the concentration range from 0.05-200 nM. For binding assays with only one concentration 200 nM IL-11 was used. The sensor surface was regenerated with glycine pH 1.7 after each antigen injection. Obtained sensorgrams were double referenced (subtraction of reference flow cell signal and buffer injection) and were fitted to a 1:1 Langmuir binding model to derive kinetic data using the Biacore T200 Evaluation software or the Biacore Insight software.
(§2) If no value is reported, there was either no binding or very low binding and multiphasic binding behavior.

[4] = biological target: T4, rat IL-11 (rat, UniProt Q99MF5 22-199); assay: as above
T4 construct: Invigate recombinant protein; also called rIL11
T4 sequence: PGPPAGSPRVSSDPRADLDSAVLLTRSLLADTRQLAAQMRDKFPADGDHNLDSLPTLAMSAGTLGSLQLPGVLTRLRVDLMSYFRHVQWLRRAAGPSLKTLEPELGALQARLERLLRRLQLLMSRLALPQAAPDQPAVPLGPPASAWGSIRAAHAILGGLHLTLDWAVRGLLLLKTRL
Experimental: as §1, §2

[5] = biological target: T2, human IL-11; assay: as above
Experimental: as §1, §2

- hIL2RA ELISA Binding: Ratio to Isotpye [1]: 398 ratio
B1: TPP-18068 (antibody, mouse IgG1)
heavy: EVQLLESGGGLVQPGGSLRLSCAASGFTFSSYGMHWVRQAPGKGLEWVSVISYDGSYKYYADSVKGRFTISRDNSKNTLYLQMNSLRAEDTAVYYCAAGVPDYWGQGTLVTVSSAKTTPPSVYPLAPGSAAQTNSMVTLGCLVKGYFPEPVTVTWNSGSLSSGVHTFPAVLQSDLYTLSSSVTVPSSTWPSETVTCNVAHPASSTKVDKKIVPRDCGCKPCICTVPEVSSVFIFPPKPKDVLTITLTPKVTCVVVDISKDDPEVQFSWFVDDVEVHTAQTQPREEQFNSTFRSVSELPIMHQDWLNGKEFKCRVNSAAFPAPIEKTISKTKGRPKAPQVYTIPPPKEQMAKDKVSLTCMITDFFPEDITVEWQWNGQPAENYKNTQPIMDTDGSYFVYSKLNVQKSNWEAGNTFTCSVLHEGLHNHHTEKSLSHSPGK
light: QSVLTQPPSASGTPGQRVTISCTGSSSNIGAGYDVHWYQQLPGTAPKLLIYSNNERPSGVPDRFSGSKSGTSASLAISGLRSEDEADYYCAAWDDSLNGPVFGGGTKLTVLGQPKSSPSVTLFPPSSEELETNKATLVCTITDFYPGVVTVDWKVDGTPVTQGMETTQPSKQSNNKYMASSYLTLTARAWERHSSYSCQVTHEGHTVEKSLSRADCS
notes: mIgG1, Lambda

- IC50 [2]: 1.7 nM
B2: TPP-29603 (bispecific antibody, IgG1)
chain 1: QVQLVESGGGVVQPGRSLRLSCAASGFTFSHYDMHWVRQAPGKGLEWVAVISYHGSVKFYADSVKGRFTISRDNSKNTLYLQMNSLRAEDTAVYYCARTPGFHFDYWGQGTLVTVSSGGGGSGGGGSGGGGSQSVLTQPPSASGTPGQRVTISCSGSSSNIGSNYVSWYQQLPGTAPKLLIYYDDLRPSGVPDRFSGSKSGTSASLAISGLRSEDEADYYCSAWDDSLSGVVFGGGTKLTVLGGGGSGGGGSGGGGSGVECPPCPAPPVAGPSVFIFPPKPKDVLTITLTPKVTCVVVDISKDDPEVQFSWFVDDVEVHTAQTQPREEQFNSTFRSVSELPIMHQDWLNGKEFKCRVNSAAFPAPIEKTISKTKGRPKAPQVYTIPPCKEQMAKDKVSLWCMITDFFPEDITVEWQWNGQPAENYKNTQPIMDTDGSYFVYSKLNVQKSNWEAGNTFTCSVLHEGLHNHHTEKSLSHSPGK
chain 2: EVQLLESGGGLVQPGGSLRLSCAASGFTFSSYGMHWVRQAPGKGLEWVAVISYDGSYKYYADSVKGRFTISRDNSKNTLYLQMNSLRAEDTAVYYCAAGVPDYWGQGTLVTVSSGGGGSGGGGSGGGGSQSVLTQPPSASGTPGQRVTISCSGSSSNIGSDYDVHWYQQLPGTAPKLLIYSNEERPSGVPDRFSGSKSGTSASLAISGLRSEDEADYYCSAWDSSLSGPVFGGGTKLTVLGGGGSGGGGSGGGGSGVECPPCPAPPVAGPSVFIFPPKPKDVLTITLTPKVTCVVVDISKDDPEVQFSWFVDDVEVHTAQTQPREEQFNSTFRSVSELPIMHQDWLNGKEFKCRVNSAAFPAPIEKTISKTKGRPKAPQVCTIPPPKEQMAKDKVSLSCAITDFFPEDITVEWQWNGQPAENYKNTQPIMDTDGSYFVVSKLNVQKSNWEAGNTFTCSVLHEGLHNHHTEKSLSHSPGK
notes: scFv-kih-mIgG1; bispecific comprising CDRs of TPP-29528 and TPP-29519

- Kd [3]: 56 nM
- Kd [4]: 34 nM
- Kd [5]: 13 nM
B3: TPP-18087 (antibody, mouse IgG1, V domains shown)
VH: EVQLLESGGGLVQPGGSLRLSCAASGFTFSHYDMNWLRQAPGKGLEWVGVISYDGSNKFYADFVKGRFTISRDNSKNTLYLQMNSLRAEDTAVYYCARTPGSHFDYWGQGTLVTVSS
VL: QSVLTQPPSASGTPGQRVTISCSGSSSNIGNNAVNWYQQLPGTAPKLLIYYDDLLPSGVPDRFSGSKSGTSASLAISGLRSEDEADYYCSAWDDSLNGVVFGGGTKLTVLG
notes: mIgG1, Lambda
